Data as given in patent US20200325225A1 (Hoffmann-La Roche, published 2020).

Biological target: T1, murine FAP (murine, UniProt P97321 27-761, limits assumed)
T1 construct: also called mouse FAP; murine FAP (Analyte 2)
Test: SPR (Biacore T200, 25 C, HBS-EP), simultaneous binding; muFAP-4-1BB held on immobilized murine 4-1BB Fc(kih); murine FAP 500 nM as second analyte, 30 uL/min, 90 s, dissociation 120 s
Description: All SPR experiments were performed on a Biacore T200 at 25° C. with HBS-EP as running buffer (0.01 M HEPES pH 7.4, 0.15 M NaCl, 3 mM EDTA, 0.005% Surfactant P20, Biacore, Freiburg/Germany). […] Immobilization levels up to 600 resonance units (RU) were used.
Murine FAP was injected as second analyte with a flow of 30 μL/minute through the flow cells over 90 seconds at a concentration of 500 nM. The dissociation was monitored for 120 sec. Bulk refractive index differences were corrected for by subtracting the response obtained in a reference flow cell, where no protein was immobilized.

T1 sequence (P97321 27-761 limits assumed): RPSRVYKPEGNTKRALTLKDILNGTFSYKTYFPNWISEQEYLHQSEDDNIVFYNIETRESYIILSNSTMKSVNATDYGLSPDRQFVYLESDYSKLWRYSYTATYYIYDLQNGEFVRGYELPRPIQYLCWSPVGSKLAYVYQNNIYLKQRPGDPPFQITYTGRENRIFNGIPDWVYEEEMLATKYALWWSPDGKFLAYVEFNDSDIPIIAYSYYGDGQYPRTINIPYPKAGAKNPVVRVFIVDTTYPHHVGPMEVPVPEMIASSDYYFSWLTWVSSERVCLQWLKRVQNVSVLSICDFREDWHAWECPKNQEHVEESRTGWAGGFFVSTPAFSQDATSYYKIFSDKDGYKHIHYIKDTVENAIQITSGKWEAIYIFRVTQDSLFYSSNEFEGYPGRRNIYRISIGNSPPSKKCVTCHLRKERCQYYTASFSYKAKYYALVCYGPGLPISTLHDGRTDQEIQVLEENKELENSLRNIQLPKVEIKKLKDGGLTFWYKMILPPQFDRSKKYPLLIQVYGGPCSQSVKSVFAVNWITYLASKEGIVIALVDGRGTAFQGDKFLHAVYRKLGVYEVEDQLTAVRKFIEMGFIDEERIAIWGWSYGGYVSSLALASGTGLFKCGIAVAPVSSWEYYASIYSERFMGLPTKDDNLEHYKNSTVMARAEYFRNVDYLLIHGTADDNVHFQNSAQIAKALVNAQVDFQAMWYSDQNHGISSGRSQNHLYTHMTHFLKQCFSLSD

binding result: binds
B1: 4-1BB (MU137-1)/FAP(28H1) DAPG IgG1 2+1 (Fc-DD-VL) (bispecific antibody)
heavy 1: DVQLVESGGGLVQPGRSLKLSCAASGFIFSYFDMAWVRQAPTKGLEWVASISPSGDIPYYRDSVKGRFTVSRENAKSSLYLQMDSLRSEDTATYYCARRSYGGYSELDYWGQGVMVTVSSAKTTPPSVYPLAPGSAAQTNSMVTLGCLVKGYFPEPVTVTWNSGSLSSGVHTFPAVLQSDLYTLSSSVTVPSSTWPSQTVTCNVAHPASSTKVDKKIVPRDCGCKPCICTVPEVSSVFIFPPKPKDVLTITLTPKVTCVVVAISKDDPEVQFSWFVDDVEVHTAQTKPREEQINSTFRSVSELPIMHQDWLNGKEFKCRVNSAAFGAPIEKTISKTKGRPKAPQVYTIPPPKEQMAKDKVSLTCMITNFFPEDITVEWQWNGQPAENYDNTQPIMDTDGSYFVYSDLNVQKSNWEAGNTFTCSVLHEGLHNHHTEKSLSHSPGGGGGSGGGGSGGGGSGGGGSEIVLTQSPGTLSLSPGERATLSCRASQSVSRSYLAWYQQKPGQAPRLLIIGASTRATGIPDRFSGSGSGTDFTLTISRLEPEDFAVYYCQQGQVIPPTFGQGTKVEIK
heavy 2: DVQLVESGGGLVQPGRSLKLSCAASGFIFSYFDMAWVRQAPTKGLEWVASISPSGDIPYYRDSVKGRFTVSRENAKSSLYLQMDSLRSEDTATYYCARRSYGGYSELDYWGQGVMVTVSSAKTTPPSVYPLAPGSAAQTNSMVTLGCLVKGYFPEPVTVTWNSGSLSSGVHTFPAVLQSDLYTLSSSVTVPSSTWPSQTVTCNVAHPASSTKVDKKIVPRDCGCKPCICTVPEVSSVFIFPPKPKDVLTITLTPKVTCVVVAISKDDPEVQFSWFVDDVEVHTAQTKPREEQINSTFRSVSELPIMHQDWLNGKEFKCRVNSAAFGAPIEKTISKTKGRPKAPQVYTIPPPKKQMAKDKVSLTCMITNFFPEDITVEWQWNGQPAENYKNTQPIMKTDGSYFVYSKLNVQKSNWEAGNTFTCSVLHEGLHNHHTEKSLSHSPGGGGGSGGGGSGGGGSGGGGSEVQLLESGGGLVQPGGSLRLSCAASGFTFSSHAMSWVRQAPGKGLEWVSAIWASGEQYYADSVKGRFTISRDNSKNTLYLQMNSLRAEDTAVYYCAKGWLGNFDYWGQGTLVTVSS
light: DIQMTQSPASLSASLEEIVTITCQASQDIGNWLAWYHQKPGKSPQLLIYGTSSLADGVPSRFSGSSSGSQYSLKISRLQVEDIGIYYCLQAYGAPWTFGGGTKLELKRADAAPTVSIFPPSSEQLTSGGASVVCFLNNFYPKDINVKWKIDGSERQNGVLNSWTDQDSKDSTYSMSSTLTLTKDEYERHNSYTCEATHKTSTSPIVKSFNRNEC
notes: It is a mouse IgG1 with DAPG (D265A, P329G) and DD/KK heterodimerisation mutations, bivalent for mouse 4-1BB and monovalent for FAP; also called muFAP-4-1BB; mouse surrogate muFAP-4-1BB
